Laboratory results from article PMC3376909 (Molecular Microbiology, 2012).

T1: MinD-N45A (purified) (E. coli, UniProt P0AEZ3 1-270, N45A)
T1 sequence (looked up): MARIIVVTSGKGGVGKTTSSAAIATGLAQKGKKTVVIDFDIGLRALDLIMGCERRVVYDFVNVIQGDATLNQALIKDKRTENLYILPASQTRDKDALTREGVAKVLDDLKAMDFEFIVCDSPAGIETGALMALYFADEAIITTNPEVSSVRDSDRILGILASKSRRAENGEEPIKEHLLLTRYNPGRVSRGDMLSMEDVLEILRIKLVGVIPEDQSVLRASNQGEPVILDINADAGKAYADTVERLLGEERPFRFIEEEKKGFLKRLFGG

B1: MalE-MinC (natural protein, E. coli, UniProt P18196 1-231, looked up)
chain: MSNTPIELKGSSFTLSVVHLHEAEPKVIHQALEDKIAQAPAFLKHAPVVLNVSALEDPVNWSAMHKAVSATGLRVIGVSGCKDAQLKAEIEKMGLPILTEGKEKAPRPAPTPQAPAQNTTPVTKTRLIDTPVRSGQRIYAPQCDLIVTSHVSAGAELIADGNIHVYGMMRGRALAGASGDRETQIFCTNLMAELVSIAGEYWLSDQIPAEFYGKAARLQLVENALTVQPLN
B2: MinE-his (purified) (natural protein, E. coli, UniProt P0A734 1-88, looked up)
chain: MALLDFFLSRKKNTANIAKERLQIIVAERRRSDAEPHYLPQLRKDILEVICKYVQIDPEMVTVQLEQKDGDISILELNVTLPEAEELK

Biological target: T1, MinD-N45A (purified)
Assay: co-sedimentation

Binder	binding result
B1	binds
B2	binds
